Test results taken from doi:10.1101/2022.09.09.507346 (bioRxiv, 2022).

T1: MBP-GLK2 fusion protein (Golden2-like transcription factor GLK2, full length) (Arabidopsis thaliana, UniProt Q9FFH0 1-386)
T1 sequence (looked up): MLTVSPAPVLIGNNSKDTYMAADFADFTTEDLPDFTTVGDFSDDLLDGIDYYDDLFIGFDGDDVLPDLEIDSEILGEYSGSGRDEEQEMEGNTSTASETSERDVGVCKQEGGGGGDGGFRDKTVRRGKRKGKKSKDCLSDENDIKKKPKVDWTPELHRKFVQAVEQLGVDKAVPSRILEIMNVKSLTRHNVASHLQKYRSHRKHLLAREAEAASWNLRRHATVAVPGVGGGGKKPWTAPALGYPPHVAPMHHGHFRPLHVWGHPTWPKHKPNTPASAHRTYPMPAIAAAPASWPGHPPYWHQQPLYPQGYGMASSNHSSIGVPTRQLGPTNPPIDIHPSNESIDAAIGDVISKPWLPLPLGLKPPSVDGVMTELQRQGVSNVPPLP

T2: MBP-GLK1 fusion protein (Golden2-like transcription factor GLK1, full length) (Arabidopsis thaliana, UniProt Q9SIV3 1-420)
T2 sequence (looked up): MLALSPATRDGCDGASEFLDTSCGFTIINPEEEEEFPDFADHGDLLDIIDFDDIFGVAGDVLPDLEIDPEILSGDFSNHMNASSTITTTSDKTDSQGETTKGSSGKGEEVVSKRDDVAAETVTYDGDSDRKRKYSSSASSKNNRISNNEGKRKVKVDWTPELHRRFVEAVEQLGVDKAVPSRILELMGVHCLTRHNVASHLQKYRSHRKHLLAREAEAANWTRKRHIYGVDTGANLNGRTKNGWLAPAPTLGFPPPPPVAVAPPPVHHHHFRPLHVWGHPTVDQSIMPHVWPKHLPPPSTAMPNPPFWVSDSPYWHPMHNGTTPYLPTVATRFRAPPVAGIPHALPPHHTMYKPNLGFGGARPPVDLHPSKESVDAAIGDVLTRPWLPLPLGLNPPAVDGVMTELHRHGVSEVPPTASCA


What was measured:
[1] = target: T1, MBP-GLK2 fusion protein (Golden2-like …); assay: pull-down
[2] = target: T2, MBP-GLK1 fusion protein (Golden2-like …); assay: pull-down

binding result [1] | binding result [2] | Binder
binds | binds | GST-GBF1 fusion protein (G-box Binding Factor 1, full length) (natural protein, Arabidopsis thaliana, UniProt P42774 1-315, looked up) MGTSEDKMPFKTTKPTSSAQEVPPTPYPDWQNSMQAYYGGGGTPNPFFPSPVGSPSPHPYMWGAQHHMMPPYGTPVPYPAMYPPGAVYAHPSMPMPPNSGPTNKEPAKDQASGKKSKGNSKKKAEGGDKALSGSGNDGASHSDESVTAGSSDENDENANQQEQGSIRKPSFGQMLADASSQSTTGEIQGSVPMKPVAPGTNLNIGMDLWSSQAGVPVKDERELKRQKRKQSNRESARRSRLRKQAECEQLQQRVESLSNENQSLRDELQRLSSECDKLKSENNSIQDELQRVLGAEAVANLEQNAAGSKDGEGTN
binds | binds | GST-GBF3 fusion protein (G-box Binding Factor 3, full length) (natural protein, Arabidopsis thaliana, UniProt P42776 1-382, looked up) MGNSSEEPKPPTKSDKPSSPPVDQTNVHVYPDWAAMQAYYGPRVAMPPYYNSAMAASGHPPPPYMWNPQHMMSPYGAPYAAVYPHGGGVYAHPGIPMGSLPQGQKDPPLTTPGTLLSIDTPTKSTGNTDNGLMKKLKEFDGLAMSLGNGNPENGADEHKRSRNSSETDGSTDGSDGNTTGADEPKLKRSREGTPTKDGKQLVQASSFHSVSPSSGDTGVKLIQGSGAILSPGVSANSNPFMSQSLAMVPPETWLQNERELKRERRKQSNRESARRSRLRKQAETEELARKVEALTAENMALRSELNQLNEKSDKLRGANATLLDKLKCSEPEKRVPANMLSRVKNSGAGDKNKNQGDNDSNSTSKLHQLLDTKPRAKAVAAG
binds | binds | GST-GBF2 fusion protein (G-box Binding Factor 2, full length) (natural protein, Arabidopsis thaliana, UniProt P42775 1-360, looked up) MGSNEEGNPTNNSDKPSQAAAPEQSNVHVYHHDWAAMQAYYGPRVGIPQYYNSNLAPGHAPPPYMWASPSPMMAPYGAPYPPFCPPGGVYAHPGVQMGSQPQGPVSQSASGVTTPLTIDAPANSAGNSDHGFMKKLKEFDGLAMSISNNKVGSAEHSSSEHRSSQSSENDGSSNGSDGNTTGGEQSRRKRRQQRSPSTGERPSSQNSLPLRGENEKPDVTMGTPVMPTAMSFQNSAGMNGVPQPWNEKEVKREKRKQSNRESARRSRLRKQAETEQLSVKVDALVAENMSLRSKLGQLNNESEKLRLENEAILDQLKAQATGKTENLISRVDKNNSVSGSKTVQHQLLNASPITDPVAAS
